From article PMC5518672 (Nature structural & molecular biology, 2013)

Experiments:
SEC-MALS = target: the molecule itself; assay: SEC-MALS
SEC [1] = target: the molecule itself; assay: SEC
SEC [2] = target: the molecule itself; assay: SEC; remark: listed apart in the source

B1: recombinant full-length Aplysia CPEB (His6-CPEB fusion protein) (natural protein)
chain: not shown
- stoichiometry N (SEC-MALS): 3
- stoichiometry N (SEC [1]): ≥ 10
- stoichiometry N (SEC [2]): > 10
